{
  "source": "paper PMC2668763",
  "note": "Read-outs that look alike come from different tables or passages of the source.",
  "data": [
    {"substance": "hCdc14A: Cdc14A phosphorylation mutants (S351,363A and S351,363D)", "values": [
      {"measurement": "localisation_or_trafficking", "setting": "phosphorylation at S351", "value": "no change"},
      {"measurement": "localisation_or_trafficking", "setting": "phosphorylation at S363", "value": "no change"}
    ]}
  ]
}
